Data as given in patent publication US20160201097A1, “Materials and Methods of Producing 7-Carbon Monomers” (INVISTA North America S.á.r.l., priority 2014, published 2016).
One block for each molecule: values may come before it.

Columns and labels:
[1] = carboxylate reductase activity: N7-acetyl-7-aminoheptanoate to N7-acetyl-7-aminoheptanal (NADPH consumption, A340); assay type: biochemical; details: purified enzyme enhanced by sfp gene product, 2 mM N7-acetyl-7-aminoheptanoate, pH 7.5, room temperature, 20 min; against the empty vector control (FIG. 10)
Method: The activity of each of the N-terminal His-tagged carboxylate reductases of SEQ ID NOs: 3, 5, and 6 (see Examples 2 and 3, and FIG. 6) for converting N7-acetyl-7-aminoheptanoate to N7-acetyl-7-aminoheptanal was assayed in triplicate in a buffer composed of a final concentration of 50 mM HEPES buffer (pH=7.5), 2 mM N7-acetyl-7-aminoheptanoate, 10 mM MgCl2, 1 mM ATP, and 1 mM NADPH. The assays were initiated by adding purified carboxylate reductase and phosphopantetheine transferase or the empty vector control to the assay buffer containing the N7-acetyl-7-aminoheptanoate then incubated at room temperature for 20 min. The consumption of NADPH was monitored by absorbance at 340 nm.

[2] = carboxylate reductase activity: pimelate to pimelate semialdehyde (NADPH consumption, A340); assay type: biochemical; details: purified enzyme enhanced by sfp gene product, 2 mM pimelate, pH 7.5, room temperature, 20 min; against the empty vector control (FIG. 8)
Method: A nucleotide sequence encoding a HIS-tag was added to the nucleic acid sequences from Segniliparus rugosus and Segniliparus rotundus that encode the carboxylate reductases of SEQ ID NOs: 4 (EFV11917.1) and 6 (ADG98140.1), respectively (see FIG. 6), such that N-terminal HIS tagged carboxylate reductases could be produced. Each of the modified genes was cloned into a pET Duet expression vector along with a sfp gene encoding a HIS-tagged phosphopantetheine transferase from Bacillus subtilis, both under the T7 promoter. Each expression vector was transformed into a BL21[DE3] E. coli host and the resulting recombinant E. coli strains were cultivated at 37° C. in a 250 mL shake flask culture containing 50 mL LB media and antibiotic selection pressure, with shaking at 230 rpm. Each culture was induced overnight at 37° C. using an auto-induction media.
The pellet from each induced shake flask culture was harvested via centrifugation. Each pellet was resuspended and lysed via sonication, and the cell debris was separated from the supernatant via centrifugation. […]
Enzyme activity assays (i.e., from pimelate to pimelate semialdehyde) were performed in triplicate in a buffer composed of a final concentration of 50 mM HEPES buffer (pH=7.5), 2 mM pimelate, 10 mM MgCl2, 1 mM ATP and 1 mM NADPH. […] The consumption of NADPH was monitored by absorbance at 340 nm. […]

B1: SEQ ID NO: 5: Mycobacterium massiliense carboxylate reductase, N-terminal HIS tagged (protein)
chain: MTNETNPQQEQLSRRIESLRESDPQFRAAQPDPAVAEQVLRPGLHLSEAIAALMTGYAERPALGERARELVIDQDGRTTLRLLPRFDTTTYGELWSRTTSVAAAWHHDATHPVKAGDLVATLGFTSIDYTVLDLAIMILGGVAVPLQTSAPASQWTTILAEAEPNTLAVSIELIGAAMESVRATPSIKQVVVFDYTPEVDDQREAFEAASTQLAGTGIALETLDAVIARGAALPAAPLYAPSAGDDPLALLIYTSGSTGAPKGAMHSENIVRRWWIREDVMAGTENLPMIGLNFMPMSHIMGRGTLTSTLSTGGTGYFAASSDMSTLFEDMELIRPTALALVPRVCDMVFQRFQTEVDRRLASGDTASAEAVAAEVKADIRDNLFGGRVSAVMVGSAPLSEELGEFIESCFELNLTDGYGSTEAGMVFRDGIVQRPPVIDYKLVDVPELGYFSTDKPHPRGELLLKTDGMFLGYYKRPEVTASVFDADGFYMTGDIVAELAHDNIEIIDRRNNVLKLSQGEFVAVATLEAEYANSPVVHQIYVYGSSERSYLLAVVVPTPEAVAAAKGDAAALKTTIADSLQDIAKEIQLQSYEVPRDFIIEPQPFTQGNGLLTGIAKLARPNLKAHYGPRLEQMYAEIAEQQAAELRALHGVDPDKPALETVLKAAQALLGVSSAELAADAHFTDLGGDSLSALSFSDLLRDIFAVEVPVGVIVSAANDLGGVAKFVDEQRHSGGTRPTAETVHGAGHTEIRAADLTLDKFIDEATLHAAPSLPKAAGIPHTVLLTGSNGYLGHYLALEWLERLDKTDGKLIVIVRGKNAEAAYGRLEEAFDTGDTELLAHFRSLADKHLEVLAGDIGDPNLGLDADTWQRLADTVDVIVHPAALVNHVLPYNQLFGPNVVGTAEIIKLAITTKIKPVTYLSTVAVAAYVDPTTFDEESDIRLISAVRPIDDGYANGYGNAKWAGEVLLREAHDLCGLPVAVFRSDMILAHSRYTGQLNVPDQFTRLILSLIATGIAPGSFYQAQTTGERPLAHYDGLPGDFTAEAITTLGTQVPEGSEGFVTYDCVNPHADGISLDNFVDWLIEAGYPIARIDNYTEWFTRFDTAIRGLSEKQKQHSLLPLLHAFEQPSAAENHGVVPAKRFQHAVQAAGIGPVGQDGTTDIPHLSRRLIVKYAKDLEQLGLL
modifications: N-terminal His tag; Mycobacterium massiliense
notes: Mycobacterium massiliense carboxylate reductase, N-terminal HIS tagged
acceptance of N7-acetyl-7-aminoheptanoate as substrate (NADPH consumption) [1]: accepted N7-acetyl-7-aminoheptanoate as substrate

acceptance of pimelate as substrate (NADPH consumption) [2]: accepted pimelate as substrate
B2: SEQ ID NO: 4: Segniliparus rugosus carboxylate reductase, N-terminal HIS tagged (protein, listed as Segniliparus rugosus)
chain: MGDGEERAKRFFQRIGELSATDPQFAAAAPDPAVVEAVSDPSLSFTRYLDTLMRGYAERPALAHRVGAGYETISYGELWARVGAIAAAWQADGLAPGDFVATVGFTSPDYVAVDLAAARSGLVSVPLQAGASLAQLVGILEETEPKVLAASASSLEGAVACALAAPSVQRLVVFDLRGPDASESAADERRGALADAEEQLARAGRAVVVETLADLAARGEALPEAPLFEPAEGEDPLALLIYTSGSTGAPKGAMYSQRLVSQLWGRTPVVPGMPNISLHYMPLSHSYGRAVLAGALSAGGTAHFTANSDLSTLFEDIALARPTFLALVPRVCEMLFQESQRGQDVAELRERVLGGRLLVAVCGSAPLSPEMRAFMEEVLGFPLLDGYGSTEALGVMRNGIIQRPPVIDYKLVDVPELGYRTTDKPYPRGELCIRSTSLISGYYKRPEITAEVFDAQGYYKTGDVMAEIAPDHLVYVDRSKNVLKLSQGEFVAVAKLEAAYGTSPYVKQIFVYGNSERSFLLAVVVPNAEVLGARDQEEAKPLIAASLQKIAKEAGLQSYEVPRDFLIETEPFTTQNGLLSEVGKLLRPKLKARYGEALEARYDEIAHGQADELRALRDGAGQRPVVETVVRAAVAISGSEGAEVGPEANFADLGGDSLSALSLANLLHDVFEVEVPVRIIIGPTASLAGIAKHIEAERAGASAPTAASVHGAGATRIRASELTLEKFLPEDLLAAAKGLPAADQVRTVLLTGANGWLGRFLALEQLERLARSGQDGGKLICLVRGKDAAAARRRIEETLGTDPALAARFAELAEGRLEVVPGDVGEPKFGLDDAAWDRLAEEVDVIVHPAALVNHVLPYHQLFGPNVVGTAEIIRLAITAKRKPVTYLSTVAVAAGVEPSSFEEDGDIRAVVPERPLGDGYANGYGNSKWAGEVLLREAHELVGLPVAVFRSDMILAHTRYTGQLNVPDQFTRLVLSLLATGIAPKSFYQQGAAGERQRAHYDGIPVDFTAEAITTLGAEPSWFDGGAGFRSFDVFNPHHDGVGLDEFVDWLIEAGHPISRIDDHKEWFARFETAVRGLPEAQRQHSLLPLLRAYSFPHPPVDGSVYPTGKFQGAVKAAQVGSDHDVPHLGKALIVKYADDLKALGLL
modifications: N-terminal His tag
notes: Segniliparus rugosus carboxylate reductase, N-terminal HIS tagged
